Assay results as given in patent publication US20200031912A1 (published 2020).

target: human recombinant FcRn protein (human, UniProt P55899 24-297); assay: Biacore
Sequence (P55899 24-297): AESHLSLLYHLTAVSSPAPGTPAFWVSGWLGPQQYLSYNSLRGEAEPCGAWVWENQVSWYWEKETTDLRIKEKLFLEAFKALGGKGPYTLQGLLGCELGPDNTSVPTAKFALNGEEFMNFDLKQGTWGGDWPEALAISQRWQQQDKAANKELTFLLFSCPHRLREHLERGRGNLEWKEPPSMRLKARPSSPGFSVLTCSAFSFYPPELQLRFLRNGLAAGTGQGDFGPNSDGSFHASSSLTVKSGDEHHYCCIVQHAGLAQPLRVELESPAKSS

Row | Kd [nM] | Binder
1 | 21 | ABD02 (SEQ ID NO: 4) (designed binder) GPSVFLFPPKPKDTLMISRTPEVTCVFVDYRADYLEVKFNWYVDGAEVHNAKTKPRQYDPLYGYRVVSVLTVLHQDWLNGKEYTCKVSNKALPAPIEKTISKDK
2 | 8.9 | ABD04 (SEQ ID NO: 6) (designed binder) GPSVFLFPPKPKDTMMISRTPEVTCVFVDYRADYLEVKFNWYVDGAEVHHAKTKPRQYDPLYGYRVVSVLTVSHQDWLNGKEYTCKVSNKALPAPIEKTISKDK
3 | 12 | B11, a template CH2 domain molecule (SEQ ID NO: 12) (designed binder) GPSVFLFPPKPKDTLMISRTPEVTCVVVDYRADYLEVKFNWYVDGVEVHNAKTKPRQYDPLYGYRVVSVLTVLHQDWLNGKEYKCKVSNKALPAPIEKTISKAK
4 | 11.4 | ABD03 (SEQ ID NO: 5) (designed binder) GPSVFLFPPKPKDTLMISRTPEVTCVFVDYRADYLEVKFNWYVDGAEVHHAKTKPRQYDPLYGYRVVSVLTVSHQDWLNGKEYTCKVSNKALPAPIQKTISKDK
5 | 9.1 | ABD05 (SEQ ID NO: 7) (designed binder) GPSVFLFPPKPKDTLMISRTPEVTCVFVDYRADYLEVKFNWYVDGAEVHHAKTKPRQYDPLYGYRVVSVLTVSHQDWLNGKEYTCKVSNKALPAPIEKTISKDK
6 | 4.18 | ABD01 (SEQ ID NO: 3) (designed binder) GPSVFLFPPKPKDTLMISRTPEVTCVFVDYRADYLEVKFNWYVDGVEVHNAKTKPRQYDPLYGYRVVSVLTVLHQDWLNGKEYTCKVSNKALPAPIEKTISKDK
7 | 13 | template (Macaque) CH2 domain molecule of SEQ ID NO: 2 (other) GPSVFLFPPKPKDTLMISRTPEVTCVVVDVSQEDPDVKFNWYVNGAEVHHAQTKPRETQYNSTYRVVSVLTVTHQDWLNGKEYTCKVSNKALPAPIQKTISKDK
